For 1 molecule, Kd and EC50 results are on record in patent US20260028401A1 (SHENGHE CHINA BIOPHARMACEUTICAL, published 2026).

Assay [1] has as its target T1, Human LILRB2/CD85d/ILT4 Protein, His Tag (Manufacturer: KACTUS, Cat: LIL-HM4B2) (human, UniProt Q8N423 22-460, limits assumed).
T1 construct: Bought recombinant protein; not shown: His tag
The assay is described as follows: BLI (ForteBio, AHC biosensors), ILT4 His protein loaded as written, antibody at 100 nM, 180 s association, 200 s dissociation; non-humanized antibody of the invention. Here is the method:
AHC Biosensors (Manufacturer: ForteBio. Inc., Cat: 18-5060) were pre-wetted for 20 min using PBST buffer and added to Human LILRB2/CD85d/ILT4 Protein, His Tag (Manufacturer: KATUS, Cat: LIL-HM4B2) protein diluted to 20 μg/mL using PBST to a target protein loading thickness of 1 nm. The antibody of the present invention and the antibody (humanized antibody) of the present invention (VHH and Fc sequences were SEQ ID NO: 6 and SEQ ID NO: 7, respectively) was diluted to 100 nM using PBST and added to the above sensor, and bound for 180 s and dissociated for 200 s.
On the technique in general: Biolayer interferometry detects binding as a change in optical thickness at a sensor tip.

For assay [2], the target named is T2, ILT4 on CHO-ILT4 cells (Manufacturer: Kang Yuan Bochuang, Cat: KC-1473) (UniProt Q8N423 22-597, limits assumed).
T2 construct: whole, on cells; also called ILT4 cell line
Put plainly: flow cytometry on CHO-ILT4 cells, 7-point 5-fold titration, anti-VHH PE detection. On the technique in general: Flow cytometry measures light scatter and fluorescence of single cells or particles in a stream.

One may read the Kd as the concentration at which binding is half-saturated. High values mean weaker binding, low ones tighter binding. In general, EC50 refers to the concentration at which the effect is half-maximal. High values mean a need for much substance, low ones an effect from little substance.

T2 sequence (Q8N423 22-597 limits assumed): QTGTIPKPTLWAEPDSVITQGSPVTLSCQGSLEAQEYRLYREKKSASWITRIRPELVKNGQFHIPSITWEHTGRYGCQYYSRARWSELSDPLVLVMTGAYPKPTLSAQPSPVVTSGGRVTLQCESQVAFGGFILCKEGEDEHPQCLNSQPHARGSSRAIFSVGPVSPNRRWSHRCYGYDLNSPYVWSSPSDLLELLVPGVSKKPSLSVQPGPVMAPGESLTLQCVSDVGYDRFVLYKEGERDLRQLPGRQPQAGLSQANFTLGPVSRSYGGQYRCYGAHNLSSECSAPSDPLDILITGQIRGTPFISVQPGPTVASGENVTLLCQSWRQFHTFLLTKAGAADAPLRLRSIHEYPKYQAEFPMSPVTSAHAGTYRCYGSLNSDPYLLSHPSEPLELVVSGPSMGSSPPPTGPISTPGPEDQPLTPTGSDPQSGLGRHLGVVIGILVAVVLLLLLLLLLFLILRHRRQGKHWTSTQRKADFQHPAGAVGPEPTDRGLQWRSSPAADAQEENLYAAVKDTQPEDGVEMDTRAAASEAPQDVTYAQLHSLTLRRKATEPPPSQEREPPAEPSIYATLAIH
T1 sequence (Q8N423 22-460 limits assumed): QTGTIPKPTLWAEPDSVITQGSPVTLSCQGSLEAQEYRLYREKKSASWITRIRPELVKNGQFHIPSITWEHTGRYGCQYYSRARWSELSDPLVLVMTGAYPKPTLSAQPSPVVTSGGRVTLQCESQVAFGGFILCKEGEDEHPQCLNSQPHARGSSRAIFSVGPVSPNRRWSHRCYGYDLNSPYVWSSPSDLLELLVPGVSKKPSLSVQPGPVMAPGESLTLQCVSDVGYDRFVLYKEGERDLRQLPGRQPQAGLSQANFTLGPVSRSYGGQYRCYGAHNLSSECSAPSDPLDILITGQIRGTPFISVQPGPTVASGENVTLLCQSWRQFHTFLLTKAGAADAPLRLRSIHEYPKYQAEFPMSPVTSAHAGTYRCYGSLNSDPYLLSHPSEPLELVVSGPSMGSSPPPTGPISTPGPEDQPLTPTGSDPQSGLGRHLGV

B1: the antibody of the present invention (anti-ILT4 single-domain antibody, alpaca VHH, SEQ ID NO: 4) (VHH)
VHH: EVQLVESGGGLGQAGGSLRLSCVVSGRTFSRYAMGWFRQAPGKEREFVAAISWSPGDITTYADSVRGRFTISRDNAKNTVYLQMNSLKPEDTAVYYCAADPTAWGTQYDYWGQGTQVTVSS
notes: VHH screened from an alpaca immune library
In assay [1], B1 yielded a Kd of 0.107 nM. Moreover, in assay [2], the EC50 was 0.36 mg/L.
